According to article PMC6123645:

Molecular target: cBid 126C-DAC (caspase-8 cleaved Bid, single cysteine 126C, labelled with DAC) (UniProt P70444)
Assay: FRET or BRET

Kd: 33 nM
Substance: Bax 126C-NBD S184E (phosphomimetic Bax, single cysteine 126C, labelled with NBD) (from UniProt Q07812 1-192) (natural protein)
